Assay results as given in article PMC8100066.

How the values were obtained:
[1] = target: mouse CSL (RBPJ), core domain 53-474 53-474 (UniProt P31266); test: isothermal titration calorimetry; conditions: reference: nonphosphorylated N3RAM peptide; sites S1672
[2] = target: mouse CSL (amino acid residues 53-474), conserved and structurally ordered core domain (mouse) (UniProt P31266); test: ITC; CSL in the cell at 10 μM, RAM peptides in the syringe at 100 μM; 20 °C; 50 mM sodium phosphate, 150 mM sodium chloride; triplicate, 20 injections of 14 μl
Chain of mouse CSL (amino acid residues 53-474), conserved and structurally ordered core domain (mouse) (P31266 53-474): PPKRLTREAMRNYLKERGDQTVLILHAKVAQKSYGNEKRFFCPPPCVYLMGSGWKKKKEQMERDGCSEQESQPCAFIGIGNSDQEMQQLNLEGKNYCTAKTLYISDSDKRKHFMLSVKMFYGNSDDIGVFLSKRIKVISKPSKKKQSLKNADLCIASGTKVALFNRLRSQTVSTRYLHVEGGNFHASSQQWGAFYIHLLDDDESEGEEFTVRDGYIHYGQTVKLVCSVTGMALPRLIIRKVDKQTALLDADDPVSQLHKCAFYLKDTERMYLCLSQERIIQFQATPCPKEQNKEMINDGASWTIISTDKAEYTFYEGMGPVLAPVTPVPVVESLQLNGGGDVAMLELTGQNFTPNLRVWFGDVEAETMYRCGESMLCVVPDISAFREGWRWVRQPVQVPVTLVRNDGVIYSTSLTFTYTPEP

KD [1] | Kd [2] [µM] | Substance
lost; reference 0.187 | – | human NOTCH3 (N3RAM peptide) RAM domain, 1665-1682 (from UniProt Q9UM47) N3RAMpS1672 peptide
– | 0.187 | human NOTCH3 RAM peptide (residues 1665-1682), nonphosphorylated
